Reference: patent US20230201308A1, “TREATMENT OF CORONAVIRUS INFECTION WITH […]” (Eiger Biopharmaceuticals, Inc., priority 2020, published 2023)
Like-named read-outs stand apart in the source and are kept apart here.

Test system: SARS-CoV-2
Conditions: for All cause death or hospitalization for COVID-19: Bayes prob, Dichotomous / All cause death or hospitalization for COVID-19: Bayes prob, TTE / All cause death or hospitalization for COVID-19: HR (95% CrI), TTE / All cause death or hospitalization for COVID-19: RR (95% CrI), Dichotomous / ER visit ≥6 h or hospitalization due to COVID-19: Bayes prob, Dichotomous / ER visit ≥6 h or hospitalization due to COVID-19: Bayes prob, TTE / ER visit ≥6 h or hospitalization due to COVID-19: HR (95% CrI), TTE / ER visit ≥6 h or hospitalization due to COVID-19: RR (95% CrI), Dichotomous: vs placebo
[1] = ITT preliminary, n=916 vs placebo 1020, 28 days
[2] = ITT preliminary, n=916 vs placebo 1020, 28 days, listed as Interferon lambda
[3] = ITT preliminary, n=916 vs placebo 1020, 28 days, listed as Lambda
[4] = Treated within 3 days of symptom onset, n=539 vs placebo 586
[5] = Treated within 5 days of symptom onset, n=800 vs placebo 879

B1: pegylated interferon lambda-1a (protein)
chain: MKPTTTGKGCHIGRFKSLSPQELASFKKARDALEESLKLKNWSCSSPVFPGNWDLRLLQVRERPVALEAELALTLKVLEAAAGPALEDVLDQPLHTLHHILSQLQACIQPQPTAGPRPRGRLHHWLHRLQEAPKKESAGCLEASVTFNLFRLLTRDLKYVADGNLSLRTSTHPEST
modifications: PEG
notes: 180 mcg subcutaneous injection
In the case of B1, the “Death or hospitalization due to COVID-19, % of patients” value [1] is reported as “(2.4%)”, the “Death or hospitalization due to COVID-19, RR (95% CrI) vs placebo” value [1] is reported as 0.61 (0.36, 0.99) and the “Hospitalization for COVID-19, RR (95% CrI) vs placebo” value [1] is reported as 0.58 (0.34, 0.95). For the same molecule, the “Hospitalization or ER (any duration) for COVID-19, % of patients” value [1] was “(10.6%)”, the “Hospitalization or ER (any duration) for COVID-19, Pr (Superiority)” value [1] was 0.984 and the “Hospitalization or ER (any duration) for COVID-19, RR (95% CrI) vs placebo” value [1] was 0.77 (0.60, 0.98). For the same molecule, the “Hospitalization or ER ≥6 h for COVID-19, Pr (Superiority)” value [1] was 0.999, the “Hospitalization or ER ≥6 h for COVID-19, RR (95% CrI) vs placebo” value [1] was 0.50 (0.31, 0.77) and the “Death due to COVID-19, % of patients” value [2] was “(0.1%)”. The “Hospitalization for COVID-19, % of patients” value [2] was “(2.3%)”, the “Hospitalization or ER ≥6 h for COVID-19, % of patients” value [2] was “(2.7%)” and the “Death due to COVID-19, % of patients” value [3] was 0.1%. The “Hospitalization for COVID-19, % of patients” value [3] was 2.3%, the “Hospitalization or ER ≥6 h for COVID-19, % of patients” value [3] was 2.7% and the “All cause death or hospitalization for COVID-19: events/patients” value (Omicron and not vaccinated) was 0/9. The “ER visit ≥6 h or hospitalization due to COVID-19: events/patients” value (Omicron and not vaccinated) was 0/9, the “All cause death or hospitalization for COVID-19: Bayes prob, Dichotomous” value (Omicron and not vaccinated) was 0.532 and the “All cause death or hospitalization for COVID-19: Bayes prob, TTE” value (Omicron and not vaccinated) was 0.912. For the same molecule, the “All cause death or hospitalization for COVID-19: HR (95% CrI), TTE” value (Omicron and not vaccinated) was 0.00 (0.00, 4.43), the “All cause death or hospitalization for COVID-19: RR (95% CrI), Dichotomous” value (Omicron and not vaccinated) was 0.90 (0.03, 10.04) and the “ER visit ≥6 h or hospitalization due to COVID-19: Bayes prob, Dichotomous” value (Omicron and not vaccinated) was 0.532. The “ER visit ≥6 h or hospitalization due to COVID-19: Bayes prob, TTE” value (Omicron and not vaccinated) was 0.912, the “ER visit ≥6 h or hospitalization due to COVID-19: HR (95% CrI), TTE” value (Omicron and not vaccinated) was 0.00 (0.00, 4.43) and the “ER visit ≥6 h or hospitalization due to COVID-19: RR (95% CrI), Dichotomous” value (Omicron and not vaccinated) was 0.90 (0.03, 10.04). The “All cause death or hospitalization for COVID-19: events/patients” value (Omicron and onset ≤3 days) was 0/281, the “ER visit ≥6 h or hospitalization due to COVID-19: events/patients” value (Omicron and onset ≤3 days) was 0/281 and the “All cause death or hospitalization for COVID-19: Bayes prob, Dichotomous” value (Omicron and onset ≤3 days) was 0.977. For the same molecule, the “All cause death or hospitalization for COVID-19: Bayes prob, TTE” value (Omicron and onset ≤3 days) was 0.9982, the “All cause death or hospitalization for COVID-19: HR (95% CrI), TTE” value (Omicron and onset ≤3 days) was 0.00 (0.00, 0.35) and the “All cause death or hospitalization for COVID-19: RR (95% CrI), Dichotomous” value (Omicron and onset ≤3 days) was 0.14 (0.00, 0.96). The “ER visit ≥6 h or hospitalization due to COVID-19: Bayes prob, Dichotomous” value (Omicron and onset ≤3 days) was 0.998, the “ER visit ≥6 h or hospitalization due to COVID-19: Bayes prob, TTE” value (Omicron and onset ≤3 days) was 0.9999 and the “ER visit ≥6 h or hospitalization due to COVID-19: HR (95% CrI), TTE” value (Omicron and onset ≤3 days) was 0.00 (0.00, 0.17). The “ER visit ≥6 h or hospitalization due to COVID-19: RR (95% CrI), Dichotomous” value (Omicron and onset ≤3 days) was 0.08 (0.00, 0.50), the “All cause death or hospitalization for COVID-19: events/patients” value (Omicron and vaccinated) was 2/428 and the “ER visit ≥6 h or hospitalization due to COVID-19: events/patients” value (Omicron and vaccinated) was 2/428. For the same molecule, the “All cause death or hospitalization for COVID-19: Bayes prob, Dichotomous” value (Omicron and vaccinated) was 0.876, the “All cause death or hospitalization for COVID-19: Bayes prob, TTE” value (Omicron and vaccinated) was 0.911 and the “All cause death or hospitalization for COVID-19: HR (95% CrI), TTE” value (Omicron and vaccinated) was 0.34 (0.05, 1.52). The “All cause death or hospitalization for COVID-19: RR (95% CrI), Dichotomous” value (Omicron and vaccinated) was 0.46 (0.09, 1.69), the “ER visit ≥6 h or hospitalization due to COVID-19: Bayes prob, Dichotomous” value (Omicron and vaccinated) was 0.999 and the “ER visit ≥6 h or hospitalization due to COVID-19: Bayes prob, TTE” value (Omicron and vaccinated) was 0.9998. The “ER visit ≥6 h or hospitalization due to COVID-19: HR (95% CrI), TTE” value (Omicron and vaccinated) was 0.11 (0.02, 0.42), the “ER visit ≥6 h or hospitalization due to COVID-19: RR (95% CrI), Dichotomous” value (Omicron and vaccinated) was 0.17 (0.04, 0.53) and the “All cause death or hospitalization for COVID-19: events/patients” value (Omicron subgroup) was 2/439. The “ER visit ≥6 h or hospitalization due to COVID-19: events/patients” value (Omicron subgroup) was 2/439, the “All cause death or hospitalization for COVID-19: Bayes prob, Dichotomous” value (Omicron subgroup) was 0.914 and the “All cause death or hospitalization for COVID-19: Bayes prob, TTE” value (Omicron subgroup) was 0.9477. For the same molecule, the “All cause death or hospitalization for COVID-19: HR (95% CrI), TTE” value (Omicron subgroup) was 0.29 (0.04, 1.27), the “All cause death or hospitalization for COVID-19: RR (95% CrI), Dichotomous” value (Omicron subgroup) was 0.41 (0.08, 1.45) and the “ER visit ≥6 h or hospitalization due to COVID-19: Bayes prob, Dichotomous” value (Omicron subgroup) was >0.9999. For the same molecule, the “ER visit ≥6 h or hospitalization due to COVID-19: Bayes prob, TTE” value (Omicron subgroup) was 0.9999, the “ER visit ≥6 h or hospitalization due to COVID-19: HR (95% CrI), TTE” value (Omicron subgroup) was 0.11 (0.02, 0.43) and the “ER visit ≥6 h or hospitalization due to COVID-19: RR (95% CrI), Dichotomous” value (Omicron subgroup) was 0.17 (0.04, 0.50). The “risk reduction, hospitalization alone” value (Phase 3 study, single s.c. dose within 7 days of symptom onset) was 44%, the “Log odds (95% CrI) vs Placebo, Bayesian logistic regression” value (Table 11 Model 1: Treatment alone) was −0.69 (−1.17, −0.26) and the “Log odds vs Placebo, Bayesian logistic regression” value (Table 11 Model 2: Unvaccinated as an effect-modifier) was −0.67. The “OR (95% CrI) vs Placebo, Bayesian logistic regression” value (Table 12 Model 1: Treatment alone) was 0.50 (0.31, 0.77), the “OR (95% CrI) vs Placebo, Bayesian logistic regression” value (Table 12 Model 2: Treatment + Vaccination) was 0.49 (0.29, 0.78) and the “OR (95% CrI) vs Placebo, Bayesian logistic regression” value (Table 12 Model 3: Treatment + Vaccination + Early onset (≤3 days)) was 0.48 (0.29, 0.77). For the same molecule, the “OR (95% CrI) vs Placebo, Bayesian logistic regression” value (Table 12 Model 4: Treatment + Vaccination + Early onset (≤5 days)) was 0.48 (0.29, 0.77), the “Death due to COVID-19, % of patients” value [4] was “(0%)” and the “Death due to COVID-19, RR (95% CrI) vs placebo” value [4] was 0.21 (0.01, 1.66). The “Death or hospitalization due to COVID-19, % of patients” value [4] was “(1.5%)”, the “Death or hospitalization due to COVID-19, RR (95% CrI) vs placebo” value [4] was 0.40 (0.18, 0.83) and the “Hospitalization for COVID-19, % of patients” value [4] was “(1.5%)”. The “Hospitalization for COVID-19, RR (95% CrI) vs placebo” value [4] was 0.40 (0.18, 0.82), the “Hospitalization or ER (any duration) for COVID-19, % of patients” value [4] was “(10%)” and the “Hospitalization or ER (any duration) for COVID-19, Pr (Superiority)” value [4] was 0.964. For the same molecule, the “Hospitalization or ER (any duration) for COVID-19, RR (95% CrI) vs placebo” value [4] was 0.75 (0.54, 1.03), the “Hospitalization or ER ≥6 h for COVID-19, % of patients” value [4] was “(2%)” and the “Hospitalization or ER ≥6 h for COVID-19, Pr (Superiority)” value [4] was 0.996. For the same molecule, the “Hospitalization or ER ≥6 h for COVID-19, RR (95% CrI) vs placebo” value [4] was 0.43 (0.21, 0.81), the “Death due to COVID-19, % of patients” value [5] was “(0.1%)” and the “Death due to COVID-19, RR (95% CrI) vs placebo” value [5] was 0.39 (0.05, 1.96). For the same molecule, the “Death or hospitalization due to COVID-19, % of patients” value [5] was “(2.2%)”, the “Death or hospitalization due to COVID-19, RR (95% CrI) vs placebo” value [5] was 0.56 (0.32, 0.96) and the “Hospitalization for COVID-19, % of patients” value [5] was “(2.1%)”. The “Hospitalization for COVID-19, RR (95% CrI) vs placebo” value [5] was 0.53 (0.29, 0.91), the “Hospitalization or ER (any duration) for COVID-19, % of patients” value [5] was “(10.2%)” and the “Hospitalization or ER (any duration) for COVID-19, Pr (Superiority)” value [5] was 0.992.
